Experimental findings from PMC11587947 are described below.

Holding throughout (test): turbidimetry of self-assembly
Experiment [1] addresses HIV-1 capsid protein CA mutant E45A (HIV-1 (strain BH10)).
Experiment [2] has as its target HIV-1 capsid protein CA mutant E180A (HIV-1 (strain BH10)).
The target in experiment [3] is HIV-1 capsid protein CA mutant P38A (HIV-1 (strain BH10)).
Experiment [4] deals with HIV-1 capsid protein CA mutant Q63A (HIV-1 (strain BH10)).
The target in experiment [5] is HIV-1 capsid protein CA mutant Q192A (HIV-1 (strain BH10)).
Experiment [6] concerns the target HIV-1 capsid protein CA mutant S178A (HIV-1 (strain BH10)).
Experiment [7] addresses HIV-1 capsid protein CA mutant V165A (HIV-1 (strain BH10)).

Take “HIV-1 capsid protein CA mutant E45A (natural protein)”: the growth rate constant kg relative to wt in experiment [1] was 11.5 fold of wt.

Take “HIV-1 capsid protein CA mutant E180A (natural protein)”: in experiment [2], the growth rate constant kg relative to wt is 0.8 fold of wt.

Turning to “HIV-1 capsid protein CA mutant P38A (natural protein)”, the growth rate constant kg relative to wt in experiment [3] is 18.5 fold of wt.

“HIV-1 capsid protein CA mutant Q63A (natural protein)”: the growth rate constant kg relative to wt in experiment [4] was 0.6 fold of wt.

For “HIV-1 capsid protein CA mutant Q192A (natural protein)”, the growth rate constant kg relative to wt in experiment [5] was 2.7 fold of wt.

Turning to “HIV-1 capsid protein CA mutant S178A (natural protein)”, the growth rate constant kg relative to wt in experiment [6] was 5.6 fold of wt.

Regarding “HIV-1 capsid protein CA mutant V165A (natural protein)”, in experiment [7], the growth rate constant kg relative to wt is 28 fold of wt and the nucleation rate constant kn relative to wt is > 100 fold of wt.
